Laboratory results from patent US20180022819A1 (published 2018).

What was measured:
[1] = target: T1, prostate-specific membrane antigen (PSMA) (human, UniProt Q04609 1-750); test: flow cytometry binding, 22Rv1 cells; 1 wk enza
[2] = target: T1, prostate-specific membrane antigen …; test: flow cytometry binding, 22Rv1 cells; 2 wk enza
[3] = target: T1, prostate-specific membrane antigen …; test: flow cytometry binding, 22Rv1 cells; 3 wk enza
[4] = target: T1, prostate-specific membrane antigen …; test: flow cytometry binding, 22Rv1 cells; 0 enza (untreated)

T1 sequence (Q04609 whole entry): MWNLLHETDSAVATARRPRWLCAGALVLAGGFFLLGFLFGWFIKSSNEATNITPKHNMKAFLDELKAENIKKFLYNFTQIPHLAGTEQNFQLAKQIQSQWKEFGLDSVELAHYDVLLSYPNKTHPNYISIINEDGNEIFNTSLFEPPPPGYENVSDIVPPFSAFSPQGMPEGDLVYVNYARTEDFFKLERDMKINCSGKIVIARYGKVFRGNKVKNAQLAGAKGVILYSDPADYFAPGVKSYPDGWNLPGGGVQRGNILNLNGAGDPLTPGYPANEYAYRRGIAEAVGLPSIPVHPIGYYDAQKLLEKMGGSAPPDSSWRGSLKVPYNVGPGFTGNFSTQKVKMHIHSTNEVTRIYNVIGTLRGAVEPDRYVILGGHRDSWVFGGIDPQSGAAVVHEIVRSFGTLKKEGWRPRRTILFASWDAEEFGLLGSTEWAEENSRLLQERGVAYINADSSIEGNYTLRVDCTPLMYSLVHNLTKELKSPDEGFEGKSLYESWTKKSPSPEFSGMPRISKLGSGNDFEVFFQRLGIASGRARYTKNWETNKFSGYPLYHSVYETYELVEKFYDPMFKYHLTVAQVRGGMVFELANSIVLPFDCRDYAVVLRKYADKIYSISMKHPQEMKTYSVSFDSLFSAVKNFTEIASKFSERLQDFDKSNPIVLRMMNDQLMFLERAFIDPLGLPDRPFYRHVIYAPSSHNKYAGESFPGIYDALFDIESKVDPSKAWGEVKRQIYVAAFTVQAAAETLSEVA

EC50 [1]: 2.3 nM | EC50 [2]: 2.5 nM | EC50 [3]: 2.7 nM | EC50 [4]: 2.2 nM
B1: FITC-labeled anti-PSMA monoclonal antibody 107-1A4 (Acris) (antibody, V domains shown)
VH: EIQLQQSGPELVKPGASVKMSCKASGYTFTDYYMHWVKQNNGESLEWIGYFNPYNDYTRYNQNFNGKATLTVDKSSSTAYMQLNSLTSEDSAFYYCARSDGYYDAMDYWGQGTSVTVSS
VL: DVQITQSPSYLAASPGETITINCRASKSISKYLAWYQEKPGKANKLLIHSGSTLQSGIPSRFSGSGSGTDFTLTISSLEPEDFAMYYCQQHIEYPWTFGGGTKLEIKR
